Like-named read-outs stand apart in the source and are kept apart here.
What was measured:
[1] = Parkinson's model mice, 50 mg/kg tail vein
Method: Eighteen 6-week-age male C57BL/6J mice were injected intraperitoneally with 1-methyl-4-phenyl-1,2,3,6-tetrahydropyridine (MPTP) solution at a dose of 35 mg/kg/mouse for 5 consecutive days to establish a Parkinson's model. Preparation of MPTP solution: 45 mg of MPTP (Sigma, M0896) was dissolved in 9 ml of physiological saline solution to prepare a final concentration of 5 mg/ml. The mice were randomly divided into two groups according to their body weight: 6 mice in vehicle group, 12 mice in plasminogen group; and administration was begun to record as day 1. The mice in the plasminogen group were injected with 50 mg/kg body weight of plasminogen solution by tail vein, and the mice in the vehicle group were injected with 5 mL/kg body weight of vehicle solution (10 mM citric acid-sodium citrate solution, pH 7.4) by tail vein.

TDP-43 [2] = test: TDP-43 in spinal cord tissue of SOD1-G93A mice after plasminogen (Western blot); type: in vivo; conditions: 50 mg/kg tail vein, 24 hours after administration, vs vehicle group, P<0.05
Method: Six SOD1-G93A mice aged 10-15 weeks were randomly divided into two groups: 3 mice in vehicle control group, and 3 mice in plasminogen group. The vehicle control group mice were injected with the vehicle at 5 ml/kg by tail vein, and the plasminogen group mice were injected with plasminogen (10 mg/ml) at 50 mg/kg body weight by tail vein. The mice were killed 24 hours after administration, and the spinal cords were obtained. After homogenization, TDP-43 was detected by western blot.

[3] = Spinal cord tissue plasminogen level after tail vein injection in FAD mice (ELISA)
Method: Twenty-seven 16-week-age B6SJL-Tg (APPSwFlLon, PSEN1*M146L* L286V) 6799Vas Mmjax (Stock Number: 034840) (FAD mice for short) (breeding mice were purchased from Jackson Laboratory, USA) were randomly divided into three groups: three mice in vehicle control group, 12 mice in 6 mg/kg plasminogen group, and 12 mice in 50 mg/kg plasminogen group. The mice in the vehicle control group were injected with vehicle at 5 ml/kg by tail vein, the mice in the 6 mg/kg plasminogen group were injected with plasminogen (1.2 mg/ml) at 6 mg/kg body weight by tail vein, and the mice in the 50 mg/kg plasminogen group were injected with plasminogen (10 mg/ml) at 6 mg/kg body weight by tail vein. […] Three mice in the 6 mg/kg plasminogen group and three mice in the 50 mg/kg plasminogen group were killed 2, 6, 12 and 24 hours after administration, and their blood was collected.
Spinal cord tissue was obtained from the mice sacrificed in Example 21, homogenizing and detecting according to the instructions of Human Plasminogen ELISA Kit (manufacturer: AssayMax, catalog number: EP1200-1). The concentration of each sample was calibrated by using human plasminogen working standard as the internal standard. The calibrated concentration was divided by the total protein concentration to calculate the amount of plasminogen per unit of total protein in each sample and perform statistical analysis.

[4] = Brain tissue plasminogen level after tail vein injection in FAD mice (ELISA)
[5] = Human plasminogen level in nuclei of brain, spinal cord and kidney tissue of SOD1-G93A mice (ELISA); type: in vivo, mouse; conditions: 50 mg/kg tail vein every day, 7 days, vs vehicle group, P<0.001
Method: Ten 9-week-age SOD1-G93A mice were randomly divided into two groups: a vehicle group and a plasminogen group, with 5 mice in each group. Five C57 mice of the same week-age were selected as normal control mice. […] The vehicle and plasminogen were administered continuously for 7 days. The mice were killed 7 days later, and brain, spinal cord and kidney tissues were collected. The tissue was cut into small pieces to digest with 0.25% trypsin (Beyotime Biotechnology, C0201-500 mL), then filtering with a 200-mesh cell sieve to obtain a single cell suspension. […] The extracted nuclear protein was tested for human plasminogen level by ELISA.

[6] = Plasma plasminogen level after tail vein injection in SOD1-G93A mice (ELISA); type: in vivo, mouse
Method: Twenty-seven 10-15 week-age B6.Cg-Tg (SOD1-G93A) 1Gur/J (SOD1-G93A) mice (pedigree number: 004435) (referred to as SOD1-G93A mice) (breeding mice were purchased from Jackson Laboratory, USA) were randomly divided into three groups: three in the vehicle control group, 12 in the 6 mg/kg plasminogen group, and 12 in the 50 mg/kg plasminogen group. The mice in the vehicle control group were injected with vehicle at 5 ml/kg by tail vein, the mice in the 6 mg/kg plasminogen group were injected with plasminogen (1.2 mg/ml) at 6 mg/kg body weight by tail vein, and the mice in the 50 mg/kg plasminogen group were injected with plasminogen (10 mg/ml) at 6 mg/kg body weight by tail vein. The mice in the vehicle control group were killed 2 hours after administration, and their blood was collected. Three mice in the 6 mg/kg plasminogen group and three mice in the 50 mg/kg plasminogen group were killed at 2, 6, 12 and 24 hours after administration, and their blood was collected. After the blood was centrifuged (3500 rpm, 10 min, 4° C.), the supernatant was taken to test according to the instructions of Human Plasminogen ELISA Kit (manufacturer: AssayMax, catalog number: EP1200-1). The concentration of each sample was calibrated by using human plasminogen working standard as the internal standard. The calibrated concentration was divided by the total protein concentration to calculate the amount of plasminogen per unit of total protein in each sample and perform statistical analysis.

[7] = Spinal cord tissue plasminogen level after tail vein injection in SOD1-G93A mice (ELISA); type: in vivo, mouse
Source text: Spinal cord tissue was obtained from the mice sacrificed in Example 11, homogenizing and detecting according to the instructions of Human Plasminogen ELISA Kit (manufacturer: AssayMax, catalog number: EP1200-1). The human plasminogen working standard in the kit was used as the internal standard to calibrate the concentration of each sample. The calibrated concentration was divided by the total protein concentration to calculate the amount of plasminogen per unit of total protein in each sample and perform statistical analysis.

[8] = Plasmin activity in brain tissue of MPTP/LPS Parkinson's model mice (enzyme substrate kinetic method); type: in vivo, mouse; conditions: MPTP + LPS Parkinson's model mice, 50 mg/kg tail vein single dose, 2 hours, vs vehicle group, P<0.05
Method: Fifteen female mice were taken to weigh before modeling. […] All mice in the model group were intraperitoneally injected with 5 mg/mL MPTP solution at 35 mg/kg/mouse, and the mice in the blank control group were intraperitoneally injected with 7 mL/kg normal saline. The modeling time was set at 9 am every day, and the injections were continued for 5 days. 24 hours after the last MPTP injection, all mice were weighed and injected intraperitoneally with 5 mg/kg LPS solution. […] The plasmin activity in brain tissue homogenate was detected by enzyme substrate kinetic method. […] 85 μL/well of seven different concentrations of standard solution, blank, and sample were added to the ELISA plate in sequence, and then 15 μL of 20 mM S-2251 solution (Chromogenix, 82033239) was added to each well to incubate at 37° C. Starting from 0 min of reaction, the A405 absorbance value was read in a multifunctional microplate reader every 5 min until the reaction time was 90 min. All reactions were fitted with a straight line by time and absorbance, and the slope of the straight line was the reaction rate of the standard/sample (ΔA405/min). Finally, the potency value of the standard substance and ΔA405/min were used to create a standard curve to calculate the potency of the measured samples.

TDP-43 [9] = molecular target: TDP-43 (Mus musculus, UniProt Q921F2); test: TDP-43 in brain tissue of okadaic acid-induced dementia model (FAD) mice (Western blot); type: in vivo; parameters: from tissue; host or cells: mouse spinal cord, gluteal muscle, brain, kidney cell nuclei; conditions: okadaic acid in basolateral amygdala, 50 mg/kg tail vein single dose, 6 hours, vs vehicle group
Method: Ten B6SJL-Tg (APPSwFlLon, PSEN1*M146L*L286V) 6799Vas/Mmjax (hereinafter referred to as FAD) female mice aged 30-32 weeks (purchased from Jackson lab, stock number: 034840) were taken to weigh before modeling as the model group, and five C57 female mice aged 6-7 weeks were selected as the blank group. After grouping, mice in the blank group and model group were anesthetized by intraperitoneal injection of tribromoethanol at a dose of 20 mL/kg. Model mice were located in the basolateral amygdala according to the mouse stereotaxic atlas (according to the coordinates of the bregma: AP-1.94 mm, ML+3.15 mm, DV-4.5 mm), and each mouse was slowly microinjected bilaterally. Mice in the blank group were only drilled at the coordinate location point without injection. The mice in the model group were injected with 50 ng/μL okadaic acid (manufacturer: Shanghai Yuanye Biotechnology Co., Ltd., catalog number S30686-25 ug:) solution, the injection rate was 0.5 μL/min, the injection volume was 2 μL, and after the injection, the syringe stayed for 6 minutes and then slowly withdrew. […] The mice were killed 6 hours after the single administration and the brain tissues were obtained. After homogenization, TDP-43 was detected by western blot.

[10] = 6 mg/kg plasminogen group, 2 hours
[11] = 6 mg/kg plasminogen group, 6 hours
[12] = 50 mg/kg plasminogen group, 2 hours
[13] = 50 mg/kg plasminogen group, 6 hours
[14] = 50 mg/kg plasminogen group, 12 hours
[15] = tail vein injection of 50 mg/kg

TDP-43 (Mus musculus, UniProt Q921F2), sequence (Q921F2 whole entry): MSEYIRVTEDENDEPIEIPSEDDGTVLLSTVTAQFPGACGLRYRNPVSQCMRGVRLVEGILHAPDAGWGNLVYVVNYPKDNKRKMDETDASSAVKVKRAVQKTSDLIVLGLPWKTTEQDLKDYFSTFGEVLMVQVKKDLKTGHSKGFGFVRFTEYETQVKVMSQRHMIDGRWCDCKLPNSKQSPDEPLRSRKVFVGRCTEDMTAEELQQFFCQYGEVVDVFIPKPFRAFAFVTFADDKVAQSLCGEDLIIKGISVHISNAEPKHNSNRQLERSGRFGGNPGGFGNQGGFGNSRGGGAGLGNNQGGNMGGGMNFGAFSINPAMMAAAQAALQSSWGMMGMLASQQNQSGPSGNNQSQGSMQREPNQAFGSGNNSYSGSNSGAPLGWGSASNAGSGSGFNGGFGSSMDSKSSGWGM

B1: plasminogen: human plasminogen purified from human donor plasma, in which human Lys-plasminogen and Glu-plasminogen are >98% (protein)
chain: KVYLSECKTGNGKNYRGTMSKTKNGITCQKWSSTSPHRPRFSPATHPSEGLEENYCRNPDNDPQGPWCYTTDPEKRYDYCDILECEEECMHCSGENYDGKISKTMSGLECQAWDSQSPHAHGYIPSKFPNKNLKKNYCRNPDRELRPWCFTTDPNKRWELCDIPRCTTPPPSSGPTYQCLKGTGENYRGNVAVTVSGHTCQHWSAQTPHTHNRTPENFPCKNLDENYCRNPDGKRAPWCHTTNSQVRWEYCKIPSCDSSPVSTEQLAPTAPPELTPVVQDCYHGDGQSYRGTSSTTTTGKKCQSWSSMTPHRHQKTPENYPNAGLTMNYCRNPDADKGPWCFTTDPSVRWEYCNLKKCSGTEASVVAPPPVVLLPDVETPSEEDCMFGNGKGYRGKRATTVTGTPCQDWAAQEPHRHSIFTPETNPRAGLEKNYCRNPDGDVGGPWCYTTNPRKLYDYCDVPQCAAPSFDCGKPQVEPKKCPGRVVGGCVAHPHSWPWQVSLRTRFGMHFCGGTLISPEWVLTAAHCLEKSPRPSSYKVILGAHQEVNLEPHVQEIEVSRLFLEPTRKDIALLKLSSPAVITDKVIPACLPSPNYVVADRTECFITGWGETQGTFGAGLLKEAQLPVIENKVCNRYEFLNGRVQSTELCAGHLAGGTDSCQGDSGGPLVCFEKDKYILQGVTSWGLGCARPNKPGVYVRVSRFVTWIEGVMRNN
With B1 the “ratio of brain tissue plasminogen level to blood plasminogen level” value (“ratio of brain tissue plasminogen level” for short) ([1]; 2 hours) was 3.47%, the “ratio of spinal cord tissue plasminogen level to blood plasminogen level” value ([1]; 2 hours) was 1.24% and the “ratio of brain tissue plasminogen level” value ([1]; 6 hours) was 4.18%. For the same molecule, the “ratio of spinal cord tissue plasminogen level to blood plasminogen level” value ([1]; 6 hours) was 1.16%, the “ratio of brain tissue plasminogen level” value ([1]; 12 hours) was 8.51% and the “ratio of spinal cord tissue plasminogen level to blood plasminogen level” value ([1]; 12 hours) was 1.46%. The “amount of low molecular weight TDP-43 in spinal cord tissue” value (TDP-43 [2]) was “significantly lower”, the “ratio of plasminogen in spinal cord tissue to plasminogen in blood” value [3, 10] was 0.93% and the “ratio of plasminogen in spinal cord tissue to plasminogen in blood” value [3, 11] was 1.62%. The “ratio of plasminogen in spinal cord tissue to plasminogen in blood” value [3, 12] was 0.33%, the “ratio of plasminogen in spinal cord tissue to plasminogen in blood” value [3, 13] was 0.40% and the “ratio of plasminogen in spinal cord tissue to plasminogen in blood” value [3, 14] was 1.56%. For the same molecule, the “plasminogen level in spinal cord tissue, 50 mg/kg group compared with 6 mg/kg group” value ([3]; tail vein) was “significantly higher”, the “time within which plasminogen is almost completely metabolized (spinal cord tissue)” value ([3]; tail vein 50 mg/kg and 6 mg/kg) was 12 to 24 h and the “plasminogen level in spinal cord tissue” value ([3]; tail vein injection of 6 mg/kg, 6 mg/kg) was “increases significantly”. For the same molecule, the “plasminogen level in spinal cord tissue” value ([3]; tail vein injection of 50 mg/kg, 50 mg/kg) was “increases significantly”, the “ratio of plasminogen in brain tissue to plasminogen in blood” value (from here on “ratio of plasminogen in brain tissue”) [4, 10] was 3.59% and the “ratio of plasminogen in brain tissue” value [4, 11] was 4.23%. For the same molecule, the “ratio of plasminogen in brain tissue” value [4, 12] was 2.49%, the “ratio of plasminogen in brain tissue” value [4, 13] was 2.31% and the “ratio of plasminogen in brain tissue” value [4, 14] was 3.32%. The “plasminogen level in brain tissue, 50 mg/kg group compared with 6 mg/kg group” value ([4]; tail vein) was “significantly higher”, the “time within which plasminogen is almost completely metabolized (brain tissue)” value ([4]; tail vein 50 mg/kg and 6 mg/kg) was 12 to 24 h and the “plasminogen level in brain tissue” value ([4]; tail vein injection of 6 mg/kg) was “increase significantly”. The “plasminogen level in brain tissue” value [4, 15] was “increase significantly”, the “level of human plasminogen in the nuclei of brain tissue” value [5] was “significantly higher” and the “level of human plasminogen in the nuclei of kidney tissue” value [5] was “significantly higher”. For the same molecule, the “level of human plasminogen in the nuclei of spinal cord tissue” value [5] was “significantly higher”, the “plasma plasminogen level, 50 mg/kg group compared with 6 mg/kg group” value ([6]; tail vein) was “significantly higher” and the “time within which plasminogen is almost completely metabolized (plasma)” value ([6]; tail vein 50 mg/kg and 6 mg/kg, level decreases from 2 hours) was 12 to 24 h. The plasma plasminogen level ([6]; tail vein injection of 6 mg/kg) was “increase significantly”, the plasma plasminogen level [6, 15] was “increase significantly” and the “plasminogen level in the spinal cord, 50 mg/kg group compared with 6 mg/kg group” value ([7]; tail vein) was “significantly higher”. The “time within which plasminogen is almost completely metabolized (spinal cord)” value ([7]; tail vein 50 mg/kg and 6 mg/kg) was 12 to 24 h, the “plasminogen level in the spinal cord” value ([7]; tail vein injection of 6 mg/kg) was “increase significantly” and the “plasminogen level in the spinal cord” value [7, 15] was “increase significantly”. For the same molecule, the “level of plasmin activity in the brain tissue” value [8] was “significantly higher”, the “level of TDP-43 monomer in brain tissue” value (TDP-43 [9]) was “significantly lower” and the “level of low molecular weight TDP-43 in brain tissue” value (TDP-43 [9]) was “significantly lower”.
